Data published in IntAct's records for PubMed 22439934.

B1: Zinc finger protein GLI1 (Homo sapiens), P08151 (parent)
chain: MFNSMTPPPISSYGEPCCLRPLPSQGAPSVGTEGLSGPPFCHQANLMSGPHSYGPARETNSCTEGPLFSSPRSAVKLTKKRALSISPLSDASLDLQTVIRTSPSSLVAFINSRCTSPGGSYGHLSIGTMSPSLGFPAQMNHQKGPSPSFGVQPCGPHDSARGGMIPHPQSRGPFPTCQLKSELDMLVGKCREEPLEGDMSSPNSTGIQDPLLGMLDGREDLEREEKREPESVYETDCRWDGCSQEFDSQEQLVHHINSEHIHGERKEFVCHWGGCSRELRPFKAQYMLVVHMRRHTGEKPHKCTFEGCRKSYSRLENLKTHLRSHTGEKPYMCEHEGCSKAFSNASDRAKHQNRTHSNEKPYVCKLPGCTKRYTDPSSLRKHVKTVHGPDAHVTKRHRGDGPLPRAPSISTVEPKREREGGPIREESRLTVPEGAMKPQPSPGAQSSCSSDHSPAGSAANTDSGVEMTGNAGGSTEDLSSLDEGPCIAGTGLSTLRRLENLRLDQLHQLRPIGTRGLKLPSLSHTGTTVSRRVGPPVSLERRSSSSSSISSAYTVSRRSSLASPFPPGSPPENGASSLPGLMPAQHYLLRARYASARGGGTSPTAASSLDRIGGLPMPPWRSRAEYPGYNPNAGVTRRASDPAQAADRPAPARVQRFKSLGCVHTPPTVAGGGQNFDPYLPTSVYSPQPPSITENAAMDARGLQEEPEVGTSMVGSGLNPYMDFPPTDTLGYGGPEGAAAEPYGARGPGSLPLGPGPPTNYGPNPCPQQASYPDPTQETWGEFPSHSGLYPGPKALGGTYSQCPRLEHYGQVQVKPEQGCPVGSDSTGLAPCLNAHPSEGPPHPQPLFSHYPQPSPPQYLQSGPYTQPPPDYLPSEPRPCLDFDSPTHSTGQLKAQLVCNYVQSQQELLWEGGGREDAPAQEPSYQSPKFLGGSQVSPSRAKAPVNTYGPGFGPNLPNHKSGSYPTPSPCHENFVVGANRASHRAAAPPRLLPPLPTCYGPLKVGGTNPSCGHPEVGRLGGGPALYPPPEGQVCNPLDSLDLDNTQLDFVAILDEPQGLSPPPSHDQRGSSGHTPPPSGPPNMAVGNMSVLLRSLPGETEFLNSSA
B2: Zinc finger protein GLI1 (Homo sapiens), P08151 (parent)
chain: B1 chain
partner: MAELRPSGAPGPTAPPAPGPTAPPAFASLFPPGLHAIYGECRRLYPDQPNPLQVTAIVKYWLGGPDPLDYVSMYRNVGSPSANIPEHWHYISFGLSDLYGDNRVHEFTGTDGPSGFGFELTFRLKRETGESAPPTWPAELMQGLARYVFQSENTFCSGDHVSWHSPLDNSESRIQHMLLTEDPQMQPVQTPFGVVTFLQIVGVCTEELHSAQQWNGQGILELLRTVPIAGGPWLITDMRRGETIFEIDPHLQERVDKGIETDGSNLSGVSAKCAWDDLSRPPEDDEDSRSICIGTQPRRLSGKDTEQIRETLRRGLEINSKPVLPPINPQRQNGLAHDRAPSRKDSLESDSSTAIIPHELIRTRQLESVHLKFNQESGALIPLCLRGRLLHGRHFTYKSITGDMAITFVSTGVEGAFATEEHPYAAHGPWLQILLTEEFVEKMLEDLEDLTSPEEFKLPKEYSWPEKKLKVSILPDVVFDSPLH

Variants of: B1
Details: with RPS6KB1, P23443-2
Sequence of RPS6KB1, P23443-2 (P23443 24-525): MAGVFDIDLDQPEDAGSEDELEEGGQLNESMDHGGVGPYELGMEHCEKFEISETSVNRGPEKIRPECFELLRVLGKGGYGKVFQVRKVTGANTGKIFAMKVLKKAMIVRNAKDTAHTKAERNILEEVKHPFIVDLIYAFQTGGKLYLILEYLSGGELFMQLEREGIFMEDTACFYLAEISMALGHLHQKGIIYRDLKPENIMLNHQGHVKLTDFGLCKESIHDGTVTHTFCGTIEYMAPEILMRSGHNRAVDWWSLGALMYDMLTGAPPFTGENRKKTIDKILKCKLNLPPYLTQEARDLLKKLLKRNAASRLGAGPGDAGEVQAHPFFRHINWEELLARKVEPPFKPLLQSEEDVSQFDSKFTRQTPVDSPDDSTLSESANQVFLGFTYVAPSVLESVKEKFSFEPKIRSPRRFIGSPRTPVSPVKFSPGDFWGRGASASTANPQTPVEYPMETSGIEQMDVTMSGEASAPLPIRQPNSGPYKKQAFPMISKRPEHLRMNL

effect of a mutation on the interaction | Variant
disrupting interaction | S84A

Variants of: B2
Details: with sufu_human SUFU

effect of a mutation on the interaction | Variant
decreasing interaction | S84E
